Measured values taken from the supplement of paper PMC10567573.

B1: KRT13 (parent)
chain: TPGIDLTRVLAEMREQYEAMAERN
B2: FBXO34 (parent)
chain: PRYREDPCKQCKKKYVKGDVSLCR

Variants of: B1
Test: protein stability index of a GFP-peptide fusion (GPS, HEK-293T) (PSI 1-6); higher = more stable
Settings: c terminus: a fixed tail appended
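Also: lentivirally expressed fusions sorted by FACS into six bins by GFP to DsRed ratio, PSI derived from sequencing read proportions per bin multiplied by bin number.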

Protein stability index: each site, then its substitutions
V9: H 4.47; M 3.94; N 4.86; C 4.47; S 3.41; D 4.54; L 2.25; R 4.56; K 4.34; T 3.85; E 4.71; P 4.49; I 3.06; Q 4.41; Y 3.01
L6: N 5.14; G 4.98; Y 3.37; K 4.7; R 4.84; H 3.99; C 4.79; S 5.29; W 3.09; Q 5.01; D 3.84; T 5.4; A 4.15; F 3.98; E 4.69; I 4.13; V 3.88
E12: Y 3.37; T 4.09; H 3.08; N 3.87; F 3.42; M 2.96; C 2.66; W 3.06; P 4.36; K 2.23; A 3.15; R 1.05; Q 4.76; I 2.72
A19: Q 3.48; Y 3.76; L 2.92; W 3.4; R 3.57; G 4.22; V 3.23; I 3.73; S 4.53; M 3.54; P 4.08; H 3.71; T 4.16; F 4.13; C 3.99; K 3.53; D 4.08; N 4.28
R8: P 3.61; H 4.05; Q 4.15; M 4.01; K 4.69; D 2.73; F 3.13; I 3.08; A 4.26; W 3.25; N 4.11; L 2.64; Y 3.39
M13: Y 4.11; C 4.23; S 4.7; R 4.93; G 4.72; H 4.74; T 4.53; Q 4.1; V 3.3; D 5.36; P 3.3; N 5.48; K 4.24; I 3.71; E 5.33; A 4.67
P2: E 3.16; V 2.6; D 3.69; I 2.54; K 3.79; C 3.36; F 2.79; W 3.75; Y 3.69; L 2.86; H 4.41; A 4.17; N 4.05; T 3.81; S 3.9; M 2.97
T1: M 3.9; I 4.36; G 4.59; L 2.71; V 2.67; P 4.16; E 4.3; K 3.85; N 4.26; S 3.49; D 3.47; Q 3.13; H 4.28; C 3.45; W 3.5; Y 4.34; F 3.27
G3: P 2.67; A 3.35; W 3.37; D 3.1; H 3.35; K 1.99; L 2.81; Y 2.34; I 3.38; M 2.38; F 2.28; N 3.12; C 2.63; R 3.39; Q 3.23; E 2.78; V 2.11; T 2.96
Q16: V 3.82; F 3.21; N 3.8; K 4.78; W 3.73; I 3.38; H 3.31; T 3.39; P 4.08; D 4.61; Y 4.01; R 4.84; L 2.94; C 4.57; S 3.17; E 3.97
M20: G 4.22; F 3.42; E 4.49; A 4.74; C 4.1; D 4.79
D5: V 2.63; C 2.73; N 3.88; G 1.58; Q 3.8; I 2.66; W 1.72; H 4.29; T 3.68; M 3.81; S 3.86; F 2.19; E 4.54; K 2.21; P 4.69; A 5.15
E18: V 4.39; G 3.88; T 3.06; Q 3.13; W 3.62; K 3.84; N 3.5; I 3.98; C 2.93; F 2.84; D 4.27; H 3.44; S 3.96; A 4.23; Y 3.87; R 3.47; M 3.72; P 2.72
I4: C 4.87; R 4.14; H 4.85; F 3.63; Y 3.75; A 3.97; N 2.62; P 4.39; T 3.31; K 3.45; V 3.8; S 4.48; Q 3.72
L10: F 4.55; Y 4.4; I 3.25; E 5.2; H 4.95; M 4.48; V 4.8; W 4.09; Q 5.15; N 5.71; R 4.12; K 4.14; C 4.22; D 5.17; T 5.01; S 4.87; P 5.31; G 5.23
T7: E 4.25; V 2.81; W 3.28; A 3.77; F 2.24; P 4.16; L 2.17; G 3.36; I 2.26; S 3.07; D 4.45; N 3.92; R 2.8; H 3.81; K 2.88
R14: V 3.14; P 4.42; K 3.69; Q 4.46; S 3.74; L 2.42; F 3.65; Y 3.61; E 4.28; M 3.69; D 5.07; C 3.04; N 4.55; H 3.61; W 4.01; T 4.44; A 2.08
A11: K 4.23; I 3.51; H 3.95; L 3.51; T 3.88; N 3.77; F 3.7; S 4.61; D 4.01; Y 3.74; P 4.65; V 3.79; M 2.79; Q 2.85
Y17: V 4.29; R 4.75; M 4.3; D 5.4; W 5.02; K 5.5; T 5.8; A 5.29; G 6; N 4.56; H 4.76; C 4.23; E 4.6
E15: K 3.83; C 3.34; A 3.47; H 3.45; S 3.61; T 3.43; W 2.07; P 3.83; Y 2.42; I 2.85; Q 3.28; V 2.24; D 4.24; G 3.82; M 2.91; F 3.26; L 3.04; R 3.11

Variants of: B2
Test: as above
Settings: c terminus: a fixed tail appended

Protein stability index of substitutions, site by site:
R24: D 3.82; N 3.46; Q 3.91; V 3.34; K 4.33; H 3.42; F 2.51; A 2.9; Y 2.87; I 2.46; C 3.58; G 3.11; P 4.39; E 4.08; W 2.27; M 3.09; L 2.52; S 3.39; T 3.05
C23: W 1.85; Q 1.9; Y 2.11; S 2.58; T 3.12; R 2.86; V 3.18
